Results on one substance are retold here after article PMC10696660.

For the experiment, the target named is AqpZ (UniProt P60844). Put plainly: native MS.

With “AqpZ (from UniProt P60844 1-231) (natural protein)”, the stoichiometry N (usually the number of molecules, sites or subunits per partner or assembly) stood at 4.
